# Measured values: article PMC9198812, “Residues located in the primase domain of the bacteriophage T7 primase-helicase are essential for loading the hexameric complex onto DNA” (The Journal of Biological Chemistry, 2022)
# Molecular target: the molecule itself
# Assay: mass photometry; self-association, monomers to hexamer; 8.7 nM gp4 (hexamer concentration) in 40 mM Tris-HCl pH 7.5, 150 mM KCl, 10 mM MgCl2, 25 °C, 15 min, with 10 nM 50-nt ssDNA and 1 mM [β,γ-CH2] dTTP; Refeyn OneMP
row,Protein,stoichiometry N
1,"bacteriophage T7 primase-helicase gp4, wild type (63 kDa form) (enzyme, UniProt P03692 1-566, looked up, bacteriophage T7 gene 4 primase-helicase, full-length 63 kDa form (residues 1-566); also called WT gp4; gp4A) MDNSHDSDSVFLYHIPCDNCGSSDGNSLFSDGHTFCYVCEKWTAGNEDTKERASKRKPSGGKPMTYNVWNFGESNGRYSALTARGISKETCQKAGYWIAKVDGVMYQVADYRDQNGNIVSQKVRDKDKNFKTTGSHKSDALFGKHLWNGGKKIVVTEGEIDMLTVMELQDCKYPVVSLGHGASAAKKTCAANYEYFDQFEQIILMFDMDEAGRKAVEEAAQVLPAGKVRVAVLPCKDANECHLNGHDREIMEQVWNAGPWIPDGVVSALSLRERIREHLSSEESVGLLFSGCTGINDKTLGARGGEVIMVTSGSGMGKSTFVRQQALQWGTAMGKKVGLAMLEESVEETAEDLIGLHNRVRLRQSDSLKREIIENGKFDQWFDELFGNDTFHLYDSFAEAETDRLLAKLAYMRSGLGCDVIILDHISIVVSASGESDERKMIDNLMTKLKGFAKSTGVVLVVICHLKNPDKGKAHEEGRPVSITDLRGSGALRQLSDTIIALERNQQGDMPNLVLVRILKCRFTGDTGIAGYMEYNKETGWLEPSSYSGEEESHSESTDWSNDTDF",6
2,"bacteriophage T7 primase-helicase gp4 Y111A (63 kDa form) (enzyme, UniProt P03692 1-566, looked up, bacteriophage T7 gene 4 primase-helicase, 63 kDa form (residues 1-566), with Y111A made by site-directed mutagenesis on pET28-gp4A; also called Y111A gp4; gp4-Y11A [sic]) MDNSHDSDSVFLYHIPCDNCGSSDGNSLFSDGHTFCYVCEKWTAGNEDTKERASKRKPSGGKPMTYNVWNFGESNGRYSALTARGISKETCQKAGYWIAKVDGVMYQVADARDQNGNIVSQKVRDKDKNFKTTGSHKSDALFGKHLWNGGKKIVVTEGEIDMLTVMELQDCKYPVVSLGHGASAAKKTCAANYEYFDQFEQIILMFDMDEAGRKAVEEAAQVLPAGKVRVAVLPCKDANECHLNGHDREIMEQVWNAGPWIPDGVVSALSLRERIREHLSSEESVGLLFSGCTGINDKTLGARGGEVIMVTSGSGMGKSTFVRQQALQWGTAMGKKVGLAMLEESVEETAEDLIGLHNRVRLRQSDSLKREIIENGKFDQWFDELFGNDTFHLYDSFAEAETDRLLAKLAYMRSGLGCDVIILDHISIVVSASGESDERKMIDNLMTKLKGFAKSTGVVLVVICHLKNPDKGKAHEEGRPVSITDLRGSGALRQLSDTIIALERNQQGDMPNLVLVRILKCRFTGDTGIAGYMEYNKETGWLEPSSYSGEEESHSESTDWSNDTDF",6
